Values quoted from earlier work as cited in article PMC6173998.
Where two headings read alike, the source gives them in different places. Blank lines part the entries; values can stand above or below the substance they belong to.

Tests used:
[1] = molecular target: FXIa (Homo sapiens) (UniProt P03951)
[2] = molecular target: FXIa (Homo sapiens) (UniProt P03951); remark: listed apart in the source
[3] = molecular target: FXIa (Homo sapiens) (UniProt P03951); remark: listed apart in the source
[4] = molecular target: FXIa (Homo sapiens) (UniProt P03951); remark: listed apart in the source
[5] = molecular target: KD APPH Kunitz domain (Homo sapiens) (UniProt Q06481)
[6] = molecular target: Protease nexin-2 (Homo sapiens) (UniProt P05067)
[7] = molecular target: Aprotinin (Bos taurus) (UniProt P00974)
[8] = molecular target: Placental bikunin (Homo sapiens) (UniProt O43291)
[9] = molecular target: Tissue factor pathway inhibitor-2 (KD1-WT) KD1 (Homo sapiens) (UniProt P48307)
[10] = molecular target: KD APPH Kunitz domain (Homo sapiens) (UniProt Q06481); remark: listed apart in the source
[11] = molecular target: Corn Hageman factor inhibitor (Zea mays) (UniProt P01088)
[12] = molecular target: KD APPH Kunitz domain (Homo sapiens) (UniProt Q06481); remark: listed apart in the source
[13] = molecular target: KD APPH Kunitz domain (Homo sapiens) (UniProt Q06481); remark: listed apart in the source

Sequence of KD APPH Kunitz domain (Homo sapiens) (Q06481 306-364): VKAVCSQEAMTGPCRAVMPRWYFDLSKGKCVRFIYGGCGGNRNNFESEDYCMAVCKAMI
Sequence of Placental bikunin (Homo sapiens) (O43291 28-197): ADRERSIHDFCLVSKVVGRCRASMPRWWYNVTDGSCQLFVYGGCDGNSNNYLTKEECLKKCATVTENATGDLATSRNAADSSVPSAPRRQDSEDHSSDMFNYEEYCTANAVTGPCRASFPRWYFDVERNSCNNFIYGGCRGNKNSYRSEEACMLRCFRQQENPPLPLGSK
Sequence of placental bikunin (O43291 28-197): as above
Sequence of corn Hageman factor inhibitor (P01088 29-138): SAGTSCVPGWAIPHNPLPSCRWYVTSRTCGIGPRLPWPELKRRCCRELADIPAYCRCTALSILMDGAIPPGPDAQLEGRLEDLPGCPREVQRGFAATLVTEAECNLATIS
Sequence of Corn Hageman factor inhibitor (Zea mays) (P01088 29-138): as above
Sequence of Protease nexin-2 (Homo sapiens) (P05067 18-687): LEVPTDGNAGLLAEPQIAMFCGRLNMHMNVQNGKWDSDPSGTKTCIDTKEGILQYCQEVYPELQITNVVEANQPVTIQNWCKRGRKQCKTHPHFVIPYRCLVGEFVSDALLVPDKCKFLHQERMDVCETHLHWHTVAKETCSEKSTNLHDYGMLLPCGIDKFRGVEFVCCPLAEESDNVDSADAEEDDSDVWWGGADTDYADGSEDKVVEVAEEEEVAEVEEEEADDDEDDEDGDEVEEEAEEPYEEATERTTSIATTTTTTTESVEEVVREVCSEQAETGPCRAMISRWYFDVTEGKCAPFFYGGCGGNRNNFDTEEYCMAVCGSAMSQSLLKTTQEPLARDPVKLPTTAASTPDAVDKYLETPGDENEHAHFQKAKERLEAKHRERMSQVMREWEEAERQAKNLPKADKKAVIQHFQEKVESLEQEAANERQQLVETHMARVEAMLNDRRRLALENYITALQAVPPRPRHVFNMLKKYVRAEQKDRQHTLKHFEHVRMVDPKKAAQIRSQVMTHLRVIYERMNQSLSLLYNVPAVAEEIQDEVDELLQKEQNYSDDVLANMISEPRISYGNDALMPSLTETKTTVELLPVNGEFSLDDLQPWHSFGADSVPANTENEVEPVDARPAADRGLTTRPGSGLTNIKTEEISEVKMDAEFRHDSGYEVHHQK
Sequence of protease nexin-2 (P05067 18-687): as above
Sequence of Plasma kallikrein (P03952 391-638): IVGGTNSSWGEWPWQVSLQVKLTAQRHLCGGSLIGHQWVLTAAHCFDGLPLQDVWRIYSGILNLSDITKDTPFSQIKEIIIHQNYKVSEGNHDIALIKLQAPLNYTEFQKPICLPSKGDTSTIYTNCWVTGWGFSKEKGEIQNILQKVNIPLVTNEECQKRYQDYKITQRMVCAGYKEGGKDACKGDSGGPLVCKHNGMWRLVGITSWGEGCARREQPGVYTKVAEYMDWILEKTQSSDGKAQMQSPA
Sequence of TFPI-2 (KD1-WT) KD1 (P48307 36-86): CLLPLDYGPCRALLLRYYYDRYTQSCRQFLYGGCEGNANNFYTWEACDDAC
Sequence of Tissue factor pathway inhibitor-2 (KD1-WT) KD1 (Homo sapiens) (P48307 36-86): as above
Sequence of Plasmin (P00747 581-810): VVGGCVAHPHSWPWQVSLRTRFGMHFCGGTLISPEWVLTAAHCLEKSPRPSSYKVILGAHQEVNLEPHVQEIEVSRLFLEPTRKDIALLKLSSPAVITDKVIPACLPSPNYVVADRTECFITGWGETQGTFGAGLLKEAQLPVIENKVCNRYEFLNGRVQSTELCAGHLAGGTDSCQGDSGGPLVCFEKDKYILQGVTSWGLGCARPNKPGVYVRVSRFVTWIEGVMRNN

Ki [1]: 15 nM
Substance: TFPI-2 (KD1-WT) KD1 (from UniProt P48307)

Ki [2]: 5400 nM
Substance: corn Hageman factor inhibitor (from UniProt P01088)

Ki [3]: 6 nM
Substance: placental bikunin (from UniProt O43291)

Ki [4]: 0.4 nM
Substance: protease nexin-2 (from UniProt P05067)

Ki [5]: 8.8 nM
Substance: Glandular kallikrein (from UniProt P06870)

Ki [6]: 0.4 nM | Ki [7]: 288 nM | Ki [8]: 6 nM | Ki [9]: 15 nM | Ki [10]: 14 nM | Ki [11]: 5400 nM
Substance: Factor XIa (from UniProt P03951)

Ki [12]: 81 nM
Substance: Plasmin (from UniProt P00747)

Ki [13]: 86 nM
Substance: Plasma kallikrein (from UniProt P03952)
